Experiments:
[1] = system: ZFN SBS 47171 (left/right albumin ZFN, FokI fusion) (synthetic construct); assay: cell_activity; details: ZFN pair with P2; HepG2/C3A, 300K/600K vg/cell, donor A; 39.81% with donor B; half-site not stated
[2] = system: ZFN SBS 47898 (also printed as SB 47931 in the transduction method) (synthetic construct); assay: cell_activity; details: ZFN pair with P1; HepG2/C3A, 300K/600K vg/cell, donor A; partner named 47898 or 47931 in text; half-site not stated

In the case of “GCACTAAGGAAAGTGCAAAGTAACTTAGAGTGACTGAAACTTCACAGAATAGGGTTGAAGATTGAATTCATAACTATCCCAAAGACCTATCCATTGCACTATGCTTTATTTAAAAACCACAAAACCTGTGCTGTTGATCTCATAAATAGAACTTGTATTTATATTTATTTTCATTTTAGTCTGTCTTCTTGGTTGCTGTTGATAGACACTAAAAGAGTATTA (double strand)”, the activity [1] is reported as 43.5 % indels and the activity [2] is reported as 43.5 % indels.

— US11219695
